Paper PMC2908215 (Human mutation, 2010)

Target: T1, MLH1 p.Tyr750X (human, UniProt P40692 1-749)
T1 sequence (looked up): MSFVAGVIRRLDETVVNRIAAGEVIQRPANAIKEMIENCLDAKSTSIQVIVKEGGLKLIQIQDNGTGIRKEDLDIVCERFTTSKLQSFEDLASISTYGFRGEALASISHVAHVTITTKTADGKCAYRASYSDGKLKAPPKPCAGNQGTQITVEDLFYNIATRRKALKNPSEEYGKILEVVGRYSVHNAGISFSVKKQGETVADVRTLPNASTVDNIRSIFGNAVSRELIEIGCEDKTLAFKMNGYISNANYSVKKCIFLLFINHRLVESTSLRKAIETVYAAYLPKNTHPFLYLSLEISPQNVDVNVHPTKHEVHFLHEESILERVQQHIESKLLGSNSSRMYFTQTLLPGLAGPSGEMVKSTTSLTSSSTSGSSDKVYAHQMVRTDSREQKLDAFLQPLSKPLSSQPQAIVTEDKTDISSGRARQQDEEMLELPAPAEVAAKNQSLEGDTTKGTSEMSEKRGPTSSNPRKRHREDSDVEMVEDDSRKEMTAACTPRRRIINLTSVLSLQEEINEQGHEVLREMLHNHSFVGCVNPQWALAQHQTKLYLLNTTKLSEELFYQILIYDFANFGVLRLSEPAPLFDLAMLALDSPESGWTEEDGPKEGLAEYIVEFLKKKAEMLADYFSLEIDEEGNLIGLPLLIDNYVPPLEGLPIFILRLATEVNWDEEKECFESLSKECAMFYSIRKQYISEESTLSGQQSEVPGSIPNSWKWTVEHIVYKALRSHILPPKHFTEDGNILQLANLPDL
Assay: co-IP

co-precipitated PMS2 in relation to wild-type: 23 % of wild-type
B1: PMS2 (natural protein, UniProt P54278 1-862, looked up)
chain: MERAESSSTEPAKAIKPIDRKSVHQICSGQVVLSLSTAVKELVENSLDAGATNIDLKLKDYGVDLIEVSDNGCGVEEENFEGLTLKHHTSKIQEFADLTQVETFGFRGEALSSLCALSDVTISTCHASAKVGTRLMFDHNGKIIQKTPYPRPRGTTVSVQQLFSTLPVRHKEFQRNIKKEYAKMVQVLHAYCIISAGIRVSCTNQLGQGKRQPVVCTGGSPSIKENIGSVFGQKQLQSLIPFVQLPPSDSVCEEYGLSCSDALHNLFYISGFISQCTHGVGRSSTDRQFFFINRRPCDPAKVCRLVNEVYHMYNRHQYPFVVLNISVDSECVDINVTPDKRQILLQEEKLLLAVLKTSLIGMFDSDVNKLNVSQQPLLDVEGNLIKMHAADLEKPMVEKQDQSPSLRTGEEKKDVSISRLREAFSLRHTTENKPHSPKTPEPRRSPLGQKRGMLSSSTSGAISDKGVLRPQKEAVSSSHGPSDPTDRAEVEKDSGHGSTSVDSEGFSIPDTGSHCSSEYAASSPGDRGSQEHVDSQEKAPKTDDSFSDVDCHSNQEDTGCKFRVLPQPTNLATPNTKRFKKEEILSSSDICQKLVNTQDMSASQVDVAVKINKKVVPLDFSMSSLAKRIKQLHHEAQQSEGEQNYRKFRAKICPGENQAAEDELRKEISKTMFAEMEIIGQFNLGFIITKLNEDIFIVDQHATDEKYNFEMLQQHTVLQGQRLIAPQTLNLTAVNEAVLIENLEIFRKNGFDFVIDENAPVTERAKLISLPTSKNWTFGPQDVDELIFMLSDSPGVMCRPSRVKQMFASRACRKSVMIGTALNTSEMKKLITHMGEMDHPWNCPHGRPTMRHIANLGVISQN
